According to paper PMC7468457:

How the values were obtained:
[1] = target: AT1R-Rluc (AngII type 1 receptor fused to Renilla luciferase) (human) (UniProt P30556)
[2] = target: AT1R-Rluc (AngII type 1 receptor fused to Renilla luciferase) (human) (UniProt P30556); remark: listed apart in the source
[3] = target: AT1R-Rluc (AngII type 1 receptor fused to Renilla luciferase) (human) (UniProt P30556); remark: listed apart in the source
[4] = target: AT1R-Rluc (AngII type 1 receptor fused to Renilla luciferase) (human) (UniProt P30556); remark: listed apart in the source
[5] = target: AT1R-Rluc (AngII type 1 receptor fused to Renilla luciferase) (human) (UniProt P30556); remark: listed apart in the source
[6] = target: AT1R-Rluc (AngII type 1 receptor fused to Renilla luciferase) (human) (UniProt P30556); remark: listed apart in the source

Chain of UniProt P30556 (P30556 whole entry, the tested form may be a part): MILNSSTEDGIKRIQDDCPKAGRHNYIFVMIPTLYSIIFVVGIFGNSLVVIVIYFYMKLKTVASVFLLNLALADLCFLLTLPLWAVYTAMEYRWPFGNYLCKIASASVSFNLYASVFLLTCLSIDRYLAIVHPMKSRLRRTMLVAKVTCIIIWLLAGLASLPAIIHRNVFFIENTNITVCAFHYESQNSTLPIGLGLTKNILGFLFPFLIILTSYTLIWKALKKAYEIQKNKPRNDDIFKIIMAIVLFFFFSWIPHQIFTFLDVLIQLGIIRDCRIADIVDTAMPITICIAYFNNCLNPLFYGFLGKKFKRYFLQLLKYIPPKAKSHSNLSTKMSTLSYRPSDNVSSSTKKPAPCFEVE

B1: PAR1 (untagged protease-activated receptor 1) (receptor)
chain: SFLLRNPNDKYEPFWEDEEKNESGLTEYRLVSINKSSPLQKQLPAFISEDASGYLTSSWLTLFVPSVYTGVFVVSLPLNIMAIVVFILKMKVKKPAVVYMLHLATADVLFVSVLPFKISYYFSGSDWQFGSELCRFVTAAFYCNMYASILLMTVISIDRFLAVVYPMQSLSWRTLGRASFTCLAIWALAIAGVVPLLLKEQTIQVPGLNITTCHDVLNETLLEGYYAYYFSAFSAVFFFVPLIISTVCYVSIIRCLSSSAVANRSKKSRALFLSAAVFCIFIICFGPTNVLLIAHYSFLSHTSTTEAAYFAYLLCVCVSSISCCIDPLIYYYASSECQRYVYSILCCKESSDPSSYNSSGQLMASKMDTCSSNLNNSIYKKLLT
BRET increase between AT1R-Rluc and Venus-Gαq by thrombin 1 U/ml with PAR1 overexpression, dose-response to AngII (Figure 1D) (% of AngII response) [1]: 70 to 75 | BRET increase between AT1R-Rluc and yPET-β-arrestin 2 by thrombin 1 U/ml with PAR1 overexpression (Figure 1F) (% of AngII response) [1]: 25 | Emax of thrombin dose-response, BRET between AT1R-Rluc and Venus-Gαq, PAR1 overexpressed, thrombin alone; 10 nM AngII alone taken as 100% [2]: 211% | Emax of thrombin dose-response, BRET between AT1R-Rluc and Venus-Gαq, PAR1 overexpressed, with 10 nM AngII [2]: 342% | Emax of thrombin dose-response, BRET between AT1R-Rluc and yPET-β-arrestin 2, PAR1 overexpressed, thrombin alone; 10 nM AngII alone taken as 100% [2]: 102% | Emax of thrombin dose-response, BRET between AT1R-Rluc and yPET-β-arrestin 2, PAR1 overexpressed, with 10 nM AngII [2]: 299% | real-time BRET between AT1R-Rluc and Venus-Gαq, PAR1 overexpressed, AngII 10 nM and thrombin 1 U/ml together (% of AngII response) [3]: 207 | real-time BRET between AT1R-Rluc and Venus-Gαq, PAR1 overexpressed, thrombin 1 U/ml alone (% of AngII response) [3]: 79 | real-time BRET between AT1R-Rluc and yPET-β-arrestin 2, PAR1 overexpressed, AngII 10 nM and thrombin 1 U/ml together (% of AngII response) [3]: 218 | real-time BRET between AT1R-Rluc and yPET-β-arrestin 2, PAR1 overexpressed, thrombin 1 U/ml alone (% of AngII response) [3]: 44 | sequential real-time BRET between AT1R-Rluc and yPET-β-arrestin 2, PAR1 overexpressed, vehicle then thrombin 1 U/ml (% of AngII response) [4]: 50 | IP1 production in HEK293 cells coexpressing AT1R-Rluc and PAR1, AngII 10 nM and thrombin 1 U/ml together [5]: 160% | AT1R endosomal trafficking (BRET between AT1R-Rluc and Venus-Rab5), PAR1 overexpressed and co-activated [6]: 45% | AT1R endosomal trafficking (BRET between AT1R-Rluc and Venus-Rab7), PAR1 overexpressed and co-activated [6]: 41%
